Experimental data taken from US20210340208A1 (ANWITA BIOSCIENCES, published 2021).
Positions count from the first letter of the chain named. Numbers in names are those of the source.

T1: human CD122-Fc (AbroBio) (human, UniProt P14784 27-239)
T1 construct: also called IL-2Rβ; not shown: Fc part and any linker of the bought protein are not described; captured on an anti-human Fc sensor
T1 sequence: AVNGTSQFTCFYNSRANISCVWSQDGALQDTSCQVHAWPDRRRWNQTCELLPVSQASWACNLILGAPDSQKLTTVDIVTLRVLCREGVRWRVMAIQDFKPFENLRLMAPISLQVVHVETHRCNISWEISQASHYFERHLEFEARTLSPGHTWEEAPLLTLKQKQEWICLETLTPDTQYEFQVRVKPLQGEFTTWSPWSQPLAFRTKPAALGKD

T2: IL-2Rα-Fc fusion protein (human, UniProt P01589 22-240)
T2 construct: also called human IL-2Rα (CD25); CD25; not shown: Fc part and any linker are not described; captured on an anti-human IgG Fc sensor
T2 sequence: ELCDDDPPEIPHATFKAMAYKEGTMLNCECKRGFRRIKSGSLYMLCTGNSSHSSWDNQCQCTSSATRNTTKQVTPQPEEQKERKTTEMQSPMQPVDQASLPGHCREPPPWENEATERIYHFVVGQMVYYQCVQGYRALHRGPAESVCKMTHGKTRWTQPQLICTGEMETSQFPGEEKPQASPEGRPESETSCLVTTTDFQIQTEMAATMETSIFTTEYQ

B1: hIL-2-anti-HSA A2 (ligand)
chain: APTSSSTKKTQLQLEHLLLDLQMILNGINNYKNPKLTNMTTFKFYMPKKATELKHLQCLEEELKPLEEVLNLAQSKNFHLRPRDLISNINVIVLELKGSETTFMCEYADETATIVEFLNRWITFSQSIISTLTGSGGSGGSGGSGEVQLVESGGGLVQPGGSLRLSCAASGSTWSINTLAWYRQAPGKQRDLVARISSGGSTYYADSVKGRFTISRDNSKNTLYLQMNSLRAEDTAVYYCYAQSTWYPPSWGQGTLVTVSS
modifications: glycosylated IL-2 (site and glycan not stated for the tested protein)
notes: fused to anti-HSA VHH; also called hIL-2 mutein (R38N, L40T, C125S); glycosylated IL-2
B2: hIL-2-anti-HSA A49 (ligand)
chain: B1 chain with K32E, N38R, T40L, F42C, V69C
notes: fused to anti-HSA VHH; also called hIL-2 mutein (K32E, F42C, V69C, C125S); IL-2 with an additional disulfide bond
B3: hIL-2-anti-HSA A59 (ligand)
chain: B1 chain with T3A, Q13E, F42A
notes: fused to anti-HSA VHH; also called hIL-2 mutein (T3A, Q13E, R38N, L40T, F42A, C125S)
B4: hIL-2-anti-HSA A60 (ligand)
chain: B1 chain with T3A, E15V, F42A
notes: fused to anti-HSA VHH; also called hIL-2 mutein (T3A, E15V, R38N, L40T, F42A, C125S)
B5: hIL-2-anti-HSA A61 (ligand)
chain: B1 chain with T3A, H16N, F42A
notes: fused to anti-HSA VHH; also called hIL-2 mutein (T3A, H16N, R38N, L40T, F42A, C125S)
B6: hIL-2-anti-HSA A62 (ligand)
chain: B1 chain with T3A, M23K, F42A
notes: fused to anti-HSA VHH; also called hIL-2 mutein (T3A, M23K, R38N, L40T, F42A, C125S)
B7: hIL-2-anti-HSA A63 (ligand)
chain: B1 chain with T3A, F42A, V91I
notes: fused to anti-HSA VHH; also called hIL-2 mutein (T3A, R38N, L40T, F42A, V91I, C125S)
B8: hIL-2-anti-HSA A64 (ligand)
chain: B1 chain with T3A, F42A, E95N
notes: fused to anti-HSA VHH; also called hIL-2 mutein (T3A, R38N, L40T, F42A, E95N, C125S)
B9: hIL-2-anti-HSA A65 (ligand)
chain: B1 chain with Q13N, K32E, N38R, T40L, F42C, V69C
notes: fused to anti-HSA VHH; also called hIL-2 mutein (Q13N, K32E, F42C, V69C, C125S)
B10: hIL-2-anti-HSA A66 (ligand)
chain: B1 chain with L19S, K32E, N38R, T40L, F42C, V69C
notes: fused to anti-HSA VHH; also called hIL-2 mutein (L19S, K32E, F42C, V69C, C125S)
B11: hIL-2-anti-HSA A67 (ligand)
chain: B1 chain with K32E, N38R, T40L, F42C, V69C, D84T
notes: fused to anti-HSA VHH; also called hIL-2 mutein (K32E, F42C, V69C, D84T, C125S)
B12: hIL-2-anti-HSA A68 (ligand)
chain: B1 chain with K32E, N38R, T40L, F42C, V69C, S87E
notes: fused to anti-HSA VHH; also called hIL-2 mutein (K32E, F42C, V69C, S87E, C125S)
B13: hIL-2-anti-HSA A69 (ligand)
chain: B1 chain with K32E, N38R, T40L, F42C, V69C, S87D
notes: fused to anti-HSA VHH; also called hIL-2 mutein (K32E, F42C, V69C, S87D, C125S)
B14: hIL-2-anti-HSA A70 (ligand)
chain: B1 chain with K32E, N38R, T40L, F42C, V69C, V91I, I92L
notes: fused to anti-HSA VHH; also called hIL-2 mutein (K32E, F42C, V69C, V91I, I92L, C125S)
B15: hIL-2-anti-HSA A71 (ligand)
chain: B1 chain with K32E, N38R, T40L, F42C, V69C, I92L
notes: fused to anti-HSA VHH; also called hIL-2 mutein (K32E, F42C, V69C, I92L, C125S)
B16: hIL-2-anti-HSA A72 (ligand)
chain: B1 chain with K32E, N38R, T40L, F42C, V69C, E95N
notes: fused to anti-HSA VHH; also called hIL-2 mutein (K32E, F42C, V69C, E95N, C125S)
B17: hIL-2-anti-HSA A73 (ligand)
chain: B1 chain with K32E, N38R, T40L, F42C, V69C, E95Q
notes: fused to anti-HSA VHH; also called hIL-2 mutein (K32E, F42C, V69C, E95Q, C125S)
B18: hIL-2-anti-HSA A38 (ligand)
chain: B1 chain with K32E, N38A, T40L, F42A
notes: fused to anti-HSA VHH; also called IL2 mutein (K32E, R38A, F42A, C125S)
B19: hIL-2-anti-HSA A39 (ligand)
chain: B1 chain with K32E, N38E, T40L, F42A
notes: fused to anti-HSA VHH; also called IL2 mutein (K32E, R38E, F42A, C125S)
B20: hIL-2-anti-HSA A40 (ligand)
chain: B1 chain with K32E, N38G, T40L, F42A
notes: fused to anti-HSA VHH; also called IL2 mutein (K32E, R38G, F42A, C125S)
B21: hIL-2-anti-HSA A42 (ligand)
chain: B1 chain with K32E, N38E, T40L, F42G
notes: fused to anti-HSA VHH; also called IL2 mutein (K32E, R38E, F42G, C125S)
B22: hIL-2-anti-HSA A44 (ligand)
chain: B1 chain with K32E, N38A, T40L, F42K
notes: fused to anti-HSA VHH; also called IL2 mutein (K32E, R38A, F42K, C125S)
B23: hIL-2-anti-HSA A45 (ligand)
chain: B1 chain with K32E, N38E, T40L, F42K
notes: fused to anti-HSA VHH; also called IL2 mutein (K32E, R38E, F42K, C125S)
B24: hIL-2-anti-HSA A46 (ligand)
chain: B1 chain with K32E, N38G, T40L, F42K
notes: fused to anti-HSA VHH; also called IL2 mutein (K32E, R38G, F42K, C125S)
B25: hIL-2-anti-HSA A48 (ligand)
chain: B1 chain with K32E, N38C, T40L, L72C
notes: fused to anti-HSA VHH; also called hIL-2 mutein (K32E, R38C, L72C, C125S)
B26: hIL-2-anti-HSA A50 (ligand)
chain: B1 chain with K32E, N38R, T40L, Y45C, E62C
notes: fused to anti-HSA VHH; also called hIL-2 mutein (K32E, Y45C, E62C, C125S)
B27: hIL-2-anti-HSA A52 (ligand)
chain: B1 chain with N38R, T40L, F42C, V69C
notes: fused to anti-HSA VHH; also called hIL-2 mutein (F42C, V69C, C125S)
B28: hIL-2-anti-HSA A53 (ligand)
chain: B1 chain with N38R, T40L, F42C, V69C, K76E
notes: fused to anti-HSA VHH; also called hIL-2 mutein (F42C, V69C, K76E, C125S)
B29: hIL-2-anti-HSA A54 (ligand)
chain: APTSSSTKKTQLQLEHLLLDLQMILNGINNYENPKLTDATLYMPKKATELKHLQCLEEELKPLEEVLNLAQSKNFHLRPRDLISNINVIVLELKGSETTFMCEYADETATIVEFLNRWITFSQSIISTLTGSGGSGGSGGSGEVQLVESGGGLVQPGGSLRLSCAASGSTWSINTLAWYRQAPGKQRDLVARISSGGSTYYADSVKGRFTISRDNSKNTLYLQMNSLRAEDTAVYYCYAQSTWYPPSWGQGTLVTVSS
notes: fused to anti-HSA VHH; also called IL-2-IL-15 chimera 1
B30: hIL-2-anti-HSA A55 (ligand)
chain: APTSSSTKKTQLQLEHLLLDLQMILNGIQSMEIDATTFKFYMPKKATELKHLQCLEEELKPLEEVLNLAQSKNFHLRPRDLISNINVIVLELKGSETTFMCEYADETATIVEFLNRWITFSQSIISTLTGSGGSGGSGGSGEVQLVESGGGLVQPGGSLRLSCAASGSTWSINTLAWYRQAPGKQRDLVARISSGGSTYYADSVKGRFTISRDNSKNTLYLQMNSLRAEDTAVYYCYAQSTWYPPSWGQGTLVTVSS
notes: fused to anti-HSA VHH; also called IL-2-IL-15 chimera 2
B31: hIL-2-anti-HSA A56 (ligand)
chain: APTSSSTKKTQLQLEHLLLDLQMILNGIQSMEIDATKFYMPKKATELKHLQCLEEELKPLEEVLNLAQSKNFHLRPRDLISNINVIVLELKGSETTFMCEYADETATIVEFLNRWITFSQSIISTLTGSGGSGGSGGSGEVQLVESGGGLVQPGGSLRLSCAASGSTWSINTLAWYRQAPGKQRDLVARISSGGSTYYADSVKGRFTISRDNSKNTLYLQMNSLRAEDTAVYYCYAQSTWYPPSWGQGTLVTVSS
notes: fused to anti-HSA VHH; also called IL-2-IL-15 chimera 3
B32: hIL-2-anti-HSA A36 (ligand)
chain: B1 chain with K32E, N38A, T40L
notes: fused to anti-HSA VHH; also called IL2 mutein (K32E, R38A, C125S)
B33: hIL-2-anti-HSA A47 (ligand)
chain: B1 chain with K32E, K35C, N38R, T40L, L72C
notes: fused to anti-HSA VHH; also called hIL-2 mutein (K32E, K35C, L72C, C125S)

The binders below were run against T1, human CD122-Fc (AbroBio) (assay: BLI (Octet RED96), CD122-Fc on AHC sensor, 400 nM hIL-2 polypeptide).
Experimental: OCTET® RED96 was used to characterize the interactions of a human CD122-Fc (AbroBio) with a wild-type hIL-2 and hIL-2 muteins. Briefly, an anti-human Fc sensor (AHC) loaded with the human CD122 was dip into 400 nM of an hIL-2 polypeptide. The binding signaling of fusion protein A1 was normalized to 1.

Row | Binder | CD122 Binding Response (A1 normalized to 1)
1 | B1 | 0.68
2 | B2 | 1.04
3 | B3 | 0.55
4 | B4 | 0.14
5 | B5 | 0.17
6 | B6 | 0.29
7 | B7 | 0.35
8 | B8 | 0.22
9 | B9 | 0.5
10 | B10 | 0.65
11 | B11 | 0.3
12 | B12 | 1.72
13 | B13 | 1.93
14 | B14 | 1.31
15 | B15 | 1.44
16 | B16 | 0.39
17 | B17 | 0.38

The binders below were run against T2, IL-2Rα-Fc fusion protein (assay: BLI (Octet RED96), IL-2Rα-Fc on AHC biosensor).
Experimental: (§1) OCTET® RED96 was used to characterize the interactions of a wild-type hIL-2 and hIL-2 muteins with a human IL-2Rα (CD25). Briefly, an IL-2Rα-Fc fusion protein was loaded onto an anti-human IgG Fc capture (AHC) biosensor. The biosensor was then dipped into a solution containing a wild-type hIL-2 (WT IL-2) or an IL-2 mutein at various concentrations. Primary experimental data was analyzed with global fitting to determine a binding affinity (Kd).

Row | Binder | binding result
18 | B1 | no binding
19 | B18 | no binding
20 | B19 | no binding
21 | B20 | no binding
22 | B21 | no binding
23 | B22 | no binding
24 | B23 | no binding
25 | B24 | no binding
26 | B25 | no binding
27 | B26 | no binding
28 | B27 | no binding
29 | B28 | no binding
30 | B2 | no binding
31 | B29 | no binding
32 | B30 | no binding
33 | B31 | no binding

The binders below were run against T2, IL-2Rα-Fc fusion protein (assay: BLI (Octet RED96), IL-2Rα-Fc on AHC biosensor, global fit).
Experimental: as §1

Row | Binder | Kd [nM]
34 | B32 | 50
35 | B33 | > 15
